The target in experiment [1] is T1, GST binding HB-EGF remaining fragment (UniProt P08515 1-218 = GST; Q99075 185-208).
T1 construct: also called remaining fragments of HB-EGF
Description: GST pull-down, anti-FLAG immunoblot.
Description: Test Method (1) In order to specify a region of PLZF protein that interacts with a remaining fragment, GST pull-down assay was performed.
(2) GST, GST binding HB-LGF remaining fragments that were expressed and isolated with *E. coli* BL21 strain according to the GST pull-down assay standard protocol were used. The fragments were bound to Glutathione Sepharose beads, and then cell lysates containing various FLAG-tagged PLZF protein derivatives were incubated with 20 µl of the beads at 4° C. for two hours. After washing with water, the bound protein was analyzed by immunoblotting using anti-FLAG antibody (referring to the peptide sold under the trademark FLAG by Sigma Aldrich Co.).

Experiment [2] concerns the target T1, GST binding HB-EGF remaining fragment. Description: GST pull-down, same method as Test Example 1.

T1 sequence (P08515 1-218, tags or fused parts left off): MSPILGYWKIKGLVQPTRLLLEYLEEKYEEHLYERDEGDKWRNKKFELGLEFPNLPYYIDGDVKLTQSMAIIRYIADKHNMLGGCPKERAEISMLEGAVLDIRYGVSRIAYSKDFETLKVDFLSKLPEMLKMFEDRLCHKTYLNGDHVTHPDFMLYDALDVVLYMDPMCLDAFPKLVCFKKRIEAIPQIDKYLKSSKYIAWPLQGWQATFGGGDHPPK

B1: PLZF protein derivative consisting only of the BTB region (other, UniProt Q05516 1-132, looked up)
chain: MDLTKMGMIQLQNPSHPTGLLCKANQMRLAGTLCDVVIMVDSQEFHAHRTVLACTSKMFEILFHRNSQHYTLDFLSPKTFQQILEYAYTATLQAKAEDLDDLLYAAEILEIEYLEEQCLKMLETIQASDDND
notes: domain: BTB region; also called FLAG-tagged PLZF protein derivative 6); not shown: FLAG synthetic octapeptide tag (Sigma-Aldrich)
In the case of B1, the binding result in experiment [1] is recorded as “no binding”.

B2: Bcl-6 protein derivative consisting only of a region of Zn1 to Zn4 (other, UniProt P41182 518-624, looked up, not shown: small tags and cut ends)
chain: FFCNECDCRFSEEASLKRHTLQTHSDKPYKCDRCQASFRYKGNLASHKTVHTGEKPYRCNICGAQFNRPANLKTHTRIHSGEKPYKCETCGARFVQVAHLRAHVLIH
notes: domain: Zn1 to Zn4; also called Bcl-6 protein derivative 8)
Take B2: in experiment [2], the binding result is reported as “no binding”.

B3: PLZF protein derivative consisting only of a region of Zn6 to Zn7 (other, UniProt Q05516 546-596, looked up)
chain: YECEFCGSCFRDESTLKSHKRIHTGEKPYECNGCGKKFSLKHQLETHYRVH
notes: domain: Zn6 to Zn7; also called FLAG-tagged PLZF protein derivative 7); not shown: FLAG synthetic octapeptide tag (Sigma-Aldrich)
Turning to B3, the binding result in experiment [1] is reported as “no binding”.

Values taken from patent US7498127 (dated 2009).
